Data on three molecules can be found in patent publication US20220378955A1 (ACTINIUM PHARMACEUTICALS, published 2022).

The target of assay [1] is mouse CD45 (mouse) (UniProt P06800). The assay can be described thus: CD45+ cell-based binding assay of radiolabeled antibody.
The target of assay [2] is T1, human CD45 (human, UniProt P08575 26-1306).
T1 construct: whole, on cells; BC8 is said to recognize all human isoforms; also called leukocyte common antigen (LCA); T200
T1 sequence (looked up): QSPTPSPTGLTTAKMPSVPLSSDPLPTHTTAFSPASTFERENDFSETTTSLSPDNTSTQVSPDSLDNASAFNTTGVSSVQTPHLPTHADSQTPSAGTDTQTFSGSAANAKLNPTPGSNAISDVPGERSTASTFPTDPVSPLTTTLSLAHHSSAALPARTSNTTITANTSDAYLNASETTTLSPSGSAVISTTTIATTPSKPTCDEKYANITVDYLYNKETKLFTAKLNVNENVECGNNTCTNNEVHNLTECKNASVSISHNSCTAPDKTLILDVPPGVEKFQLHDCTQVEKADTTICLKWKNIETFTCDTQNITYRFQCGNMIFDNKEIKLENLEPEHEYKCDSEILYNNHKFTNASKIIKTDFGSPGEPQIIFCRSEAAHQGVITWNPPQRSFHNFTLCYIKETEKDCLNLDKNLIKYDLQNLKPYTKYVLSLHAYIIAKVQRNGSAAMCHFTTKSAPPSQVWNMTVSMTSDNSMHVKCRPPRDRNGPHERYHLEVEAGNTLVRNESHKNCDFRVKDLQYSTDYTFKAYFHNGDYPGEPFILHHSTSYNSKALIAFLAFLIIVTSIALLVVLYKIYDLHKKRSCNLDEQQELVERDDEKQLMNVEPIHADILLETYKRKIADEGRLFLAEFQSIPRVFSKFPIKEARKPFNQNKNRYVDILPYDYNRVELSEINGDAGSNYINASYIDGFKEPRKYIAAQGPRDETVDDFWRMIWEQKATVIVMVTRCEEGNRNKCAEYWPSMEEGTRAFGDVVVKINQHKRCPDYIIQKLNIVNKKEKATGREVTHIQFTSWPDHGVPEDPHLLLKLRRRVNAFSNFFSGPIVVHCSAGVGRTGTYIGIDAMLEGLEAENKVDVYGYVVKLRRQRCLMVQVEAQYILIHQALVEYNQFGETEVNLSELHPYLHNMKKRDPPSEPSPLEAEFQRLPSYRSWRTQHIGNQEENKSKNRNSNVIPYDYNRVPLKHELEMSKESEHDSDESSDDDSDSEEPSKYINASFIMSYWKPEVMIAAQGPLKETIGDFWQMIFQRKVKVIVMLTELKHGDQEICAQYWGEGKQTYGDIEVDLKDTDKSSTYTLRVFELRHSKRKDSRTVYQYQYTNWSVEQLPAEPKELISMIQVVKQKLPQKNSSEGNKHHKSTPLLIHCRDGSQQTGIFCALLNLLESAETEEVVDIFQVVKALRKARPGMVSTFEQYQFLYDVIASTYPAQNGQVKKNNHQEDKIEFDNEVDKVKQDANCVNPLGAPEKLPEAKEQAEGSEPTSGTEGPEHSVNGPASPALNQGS
The assay can be described thus: flow cytometry on Cytotrol cells, against naïve BC8 as reference. From the text: Cytotrol cells (Beckman Coulter) were initially used to determine the binding of naïve BC8 antibody to those cells versus control 18B7 antibody (nonspecific control antibody against the fungal polysaccharide glucuronoxylomannan) by flow cytometry (FIG. 13A). The cells were taken up in RPMI medium, and the secondary antibody was PE labeled rat anti-mouse IgG1 from Biolegend.
Finally, we performed the side by side comparison of the binding of DOTA-BC8 sample to Cytotrol cells by flow cytometry (FIG. 14B), followed by immediate radiolabeling of the same sample with ²²⁵Ac and binding of the radiolabeled sample to Cytotrol cells (FIG. 14A). The binding of the DOTA-BC8 to the cells by flow cytometry (around 60% of the naïve BC8 binding) matched that of radiolabeled ²²⁵Ac-DOTA-BC8 to Cytotrol cells.

Chain of mouse CD45 (mouse) (P06800 26-1293): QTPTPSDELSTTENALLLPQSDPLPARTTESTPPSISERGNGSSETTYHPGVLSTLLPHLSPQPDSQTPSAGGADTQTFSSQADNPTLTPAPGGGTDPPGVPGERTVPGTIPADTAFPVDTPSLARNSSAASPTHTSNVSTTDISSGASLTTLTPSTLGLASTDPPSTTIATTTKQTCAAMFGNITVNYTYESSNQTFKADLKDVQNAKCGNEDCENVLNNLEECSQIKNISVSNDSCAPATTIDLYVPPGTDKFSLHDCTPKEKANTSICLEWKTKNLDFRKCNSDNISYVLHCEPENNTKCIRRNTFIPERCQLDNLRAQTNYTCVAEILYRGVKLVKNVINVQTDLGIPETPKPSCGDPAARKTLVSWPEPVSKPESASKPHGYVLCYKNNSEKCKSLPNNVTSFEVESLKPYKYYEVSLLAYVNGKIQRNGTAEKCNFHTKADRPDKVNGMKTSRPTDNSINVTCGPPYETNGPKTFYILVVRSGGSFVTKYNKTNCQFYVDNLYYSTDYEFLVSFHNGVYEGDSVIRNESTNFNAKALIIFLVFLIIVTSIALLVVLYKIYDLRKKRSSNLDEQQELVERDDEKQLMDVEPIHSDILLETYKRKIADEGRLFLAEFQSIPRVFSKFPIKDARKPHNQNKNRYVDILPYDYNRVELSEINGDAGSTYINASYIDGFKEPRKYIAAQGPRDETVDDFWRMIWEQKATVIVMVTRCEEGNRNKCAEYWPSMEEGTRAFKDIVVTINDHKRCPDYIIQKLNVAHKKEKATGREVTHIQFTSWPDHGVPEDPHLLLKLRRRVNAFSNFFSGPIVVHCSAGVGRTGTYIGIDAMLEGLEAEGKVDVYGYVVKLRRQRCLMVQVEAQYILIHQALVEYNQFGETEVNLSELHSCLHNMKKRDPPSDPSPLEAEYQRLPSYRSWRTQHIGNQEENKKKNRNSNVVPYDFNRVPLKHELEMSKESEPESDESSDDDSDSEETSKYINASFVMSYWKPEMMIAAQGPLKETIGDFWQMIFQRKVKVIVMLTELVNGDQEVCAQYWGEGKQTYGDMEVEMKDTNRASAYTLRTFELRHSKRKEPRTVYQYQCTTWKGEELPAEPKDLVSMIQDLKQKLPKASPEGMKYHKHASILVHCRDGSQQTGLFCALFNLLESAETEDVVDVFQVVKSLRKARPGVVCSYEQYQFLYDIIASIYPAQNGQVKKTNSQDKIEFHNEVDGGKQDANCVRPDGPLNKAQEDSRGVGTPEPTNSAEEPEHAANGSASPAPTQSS

Molecule “^131I-labeled anti-mouse pan-CD45 antibody 30F11” showed an immunoreactivity in assay [1] greater than 95%.

“^177Lu-labeled anti-mouse pan-CD45 antibody 30F11” yielded an immunoreactivity in assay [1] greater than 95%.

B1: DOTA-BC8 (BC8 conjugated with p-SCN-Bn-DOTA, batch A) (antibody, V domains shown)
VH: EVKLLESGGGLVQPGGSLKLSCAASGFDFSRYWMSWVRQAPGKGLEWIGEINPTSSTINFTPSLKDKVFISRDNAKNTLYLQMSKVRSEDTALYYCARGNYYRYGDAMDYWGQGTSVTVS
VL: DIALTQSPASLAVSLGQRATISCRASKSVSTSGYSYLHWYQQKPGQPPKLLIYLASNLESGVPARFSGSGSGTDFTLNIHPVEEEDAATYYCQHSRELPFTFGSGTKLEIKR
modifications: p-SCN-Bn-DOTA conjugated, sites not stated; p-SCN-Bn-DOTA conjugated, about 1.5 DOTA per antibody (batch A), sites not stated; Asn-141 partly deamidated to Asp
notes: Chelator conjugate of murine IgG1 BC8; also called unlabeled DOTA-BC8
Consider B1, for which, in assay [2], the “binding relative to naïve BC8” value was roughly 60% and the “immunoreactivity relative to naïve BC8” value is roughly 70%.
